Assay results: patent US10357539B2, “Use of peptides that block metadherin-SND1 interaction as treatment for cancer” (THE TRUSTEES OF PRINCETON UNIVERSITY, priority 2014, dated 2019)
Residue numbers refer to the chain shown, from its start. In names and notes the source's numbering stands.

T1: MTDH-SND1 interaction (Homo sapiens, UniProt Q7KZF4)
T1 construct: Full-length HA-tagged SND1 was co-expressed with full-length Myc-tagged wild-type (WT) or mutant MTDH in HEK293T cells; expressed in transfected cells; host or cells: 293T
T1 sequence (Q7KZF4 1-910): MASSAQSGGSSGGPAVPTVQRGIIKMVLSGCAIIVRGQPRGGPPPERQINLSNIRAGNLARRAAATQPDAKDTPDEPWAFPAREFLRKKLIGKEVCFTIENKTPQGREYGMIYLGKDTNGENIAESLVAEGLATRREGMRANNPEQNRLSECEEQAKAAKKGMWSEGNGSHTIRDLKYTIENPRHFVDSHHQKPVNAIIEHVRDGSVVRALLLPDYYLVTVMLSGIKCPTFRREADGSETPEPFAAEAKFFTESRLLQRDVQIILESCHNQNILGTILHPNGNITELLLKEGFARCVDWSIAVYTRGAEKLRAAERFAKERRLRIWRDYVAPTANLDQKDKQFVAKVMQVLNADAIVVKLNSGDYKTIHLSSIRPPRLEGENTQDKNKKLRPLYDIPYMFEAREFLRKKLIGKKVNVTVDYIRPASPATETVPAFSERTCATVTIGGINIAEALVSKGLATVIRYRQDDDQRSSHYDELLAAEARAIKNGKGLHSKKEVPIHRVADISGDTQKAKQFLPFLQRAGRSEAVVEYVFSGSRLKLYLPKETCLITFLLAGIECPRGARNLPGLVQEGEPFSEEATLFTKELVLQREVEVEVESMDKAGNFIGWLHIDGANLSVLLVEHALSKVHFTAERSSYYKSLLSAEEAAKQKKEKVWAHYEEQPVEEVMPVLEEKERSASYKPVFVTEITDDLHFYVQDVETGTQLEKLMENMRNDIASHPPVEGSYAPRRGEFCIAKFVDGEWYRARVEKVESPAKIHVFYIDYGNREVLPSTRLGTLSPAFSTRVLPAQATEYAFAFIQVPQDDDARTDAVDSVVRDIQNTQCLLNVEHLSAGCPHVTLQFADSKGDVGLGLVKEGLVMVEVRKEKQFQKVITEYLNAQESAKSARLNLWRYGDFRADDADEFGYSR

T2: SND1 (Mus musculus, UniProt Q78PY7)
T2 construct: endogenous in cells; host or cells: PyMT;Mtdh−/− (A9) or PyMT;Mtdh+/+ (A13) mouse mammary epithelial/tumor cells
T2 sequence (Q78PY7 1-910): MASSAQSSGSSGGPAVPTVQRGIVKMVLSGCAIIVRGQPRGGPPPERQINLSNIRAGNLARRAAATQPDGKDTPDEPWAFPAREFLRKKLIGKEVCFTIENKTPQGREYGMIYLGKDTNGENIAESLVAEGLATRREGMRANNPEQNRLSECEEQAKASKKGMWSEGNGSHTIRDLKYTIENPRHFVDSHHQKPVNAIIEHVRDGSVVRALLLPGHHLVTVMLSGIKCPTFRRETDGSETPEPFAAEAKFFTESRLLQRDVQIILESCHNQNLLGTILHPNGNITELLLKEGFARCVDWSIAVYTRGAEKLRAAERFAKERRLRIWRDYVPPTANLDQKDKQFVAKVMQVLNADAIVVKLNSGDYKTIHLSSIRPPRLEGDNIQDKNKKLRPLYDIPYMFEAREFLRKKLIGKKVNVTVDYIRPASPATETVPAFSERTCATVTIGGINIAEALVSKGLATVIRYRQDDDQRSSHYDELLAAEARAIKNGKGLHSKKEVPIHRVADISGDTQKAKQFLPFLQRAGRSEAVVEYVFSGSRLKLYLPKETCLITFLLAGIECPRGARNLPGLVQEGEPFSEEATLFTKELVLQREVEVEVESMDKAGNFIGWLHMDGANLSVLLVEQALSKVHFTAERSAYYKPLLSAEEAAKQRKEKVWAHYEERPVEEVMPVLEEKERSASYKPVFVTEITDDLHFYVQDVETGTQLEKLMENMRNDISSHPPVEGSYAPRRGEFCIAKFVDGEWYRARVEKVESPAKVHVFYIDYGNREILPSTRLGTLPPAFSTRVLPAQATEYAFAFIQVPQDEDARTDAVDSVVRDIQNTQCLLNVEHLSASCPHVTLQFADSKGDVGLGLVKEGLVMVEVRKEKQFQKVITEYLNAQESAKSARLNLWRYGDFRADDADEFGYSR

B1: murine TPM1: murine Mtdh triple mutant D386R, D390R, W391D (protein, UniProt Q80WJ7 1-579, looked up, variant D386R D390R W391D)
Protein LYRIC: MAARSWQDELAQQAEEGSARLRELLSVGLGFLRTELGLDLGLEPKRYPGWVILVGTGALGLLLLFLLGYGWAAACAGARKKRRSPPRKREEAAPPTPAPDDLAQLKNLRSEEQKKKNRKKLPEKPKPNGRTVEVPEDEVVRNPRSITAKQAPETDKKNEKSKKNKKKSKSDAKAVQNSSRHDGKEVDEGAWETKISHREKRQQRKRDKVLTDSGSLDSTIPGIENIITVTTEQLTTASFPVGSKKNKGDSHLNVQVSNFKSGKGDSTLQVSSRLNENLTVNGGGWSEKSVKLSSQLSEEKWNSVPPASAGKRKTEPSAWTQDTGDTNANGKDWGRNWSDRSIFSGIGSTAEPVSQSTTSDYQWDVSRNQPYIDDEWSGLNGLSSARPSSRDNAPAEEWGNWVDEDRASLLKSQEPISNDQKVSDDDKEKGEGALPTGKSKKKKKKKKKQGEDNSHTQDTEDLEKDTREELPVNTSKARPKQEKACSLKTMSTSDPAEVLIKNSQPVKTLPPAISAEPSITLSKGDSDNSSSQVPPMLQDTDKPKSNAKQNSVPPSQTKSETNWESPKQIKKKKKARRET
B2: murine W394A: murine MTDH mutant W391A, corresponding to human W394A (protein)
chain: B1 Protein LYRIC with R386D, R390D, D391A
B3: murine TPM2: murine Mtdh triple mutant E396R, E397R, W398D (protein, UniProt Q80WJ7 1-579, looked up, variant E396R E397R W398D)
Protein LYRIC: B1 Protein LYRIC with R386D, R390D, D391W, E396R, E397R, W398D
B4: murine W401A: murine MTDH mutant W398A, corresponding to human W401A (protein)
chain: B1 Protein LYRIC with R386D, R390D, D391W, W398A

Columns and labels:
[1] = molecular target: T1, MTDH-SND1 interaction; assay: Immunoprecipitation assay: elution or co-incubation with MTDH peptides, western blot; assay type: biochemical; conditions: 50 uM of peptides; IP of HA-SND1 from 293T (HA-SND1 + MYC-MTDH) and of endogenous SND1 from MDA-MB-231
Method: 293T cells co-transfected with HA-SND1 and MYC-MTDH. After 48 hr cells were collected and subjected to IP assay. (FIG. 26A, FIG. 26B) Cell lysate was incubated with anti-HA antibody or IgG overnight followed by 2 hr incubation with Protein A/G beads to pull down HA-SND1 protein. The beads was washed with lysis buffer and split into 5 fractions. Each fraction was eluted with buffer or indicated peptides for 30 min. The elution fractions and beads were collected for WB. (FIG. 26C, FIG. 26D) Cell lyaste was split into 6 fractions, one of them was incubated with IgG and the rest were incubated with anti-HA antibody plus either buffer or indicated peptides. After 24 hr, the lysate was incubated with Protein A/G beads then the beads were washed in wash buffer.
Breast cancer cells MDA-MB231 were collected and subjected to IP assay. (FIG. 27A) Cell lysate was incubated with anti-SND1 antibody or IgG overnight followed by 2 hr incubation with Protein A/G beads to pull down endogenous SND1 protein. The beads were washed with lysis buffer and split into 5 fractions. Each fraction was eluted with buffer or indicated peptides for 30 min. The elution fractions and beads were collected for WB. (FIG. 27B) Cell lyaste was split into 5 fractions, and incubated with anti-SND1 antibody plus either buffer or indicated peptides. After 24 hr, the lysate was incubated with Protein A/G beads then the beads were washed in wash buffer.
293 T cells were co-transfected with HA-SND1 and MYC-MTDH. After 48 hours, the cells were collected and subject to immunoprecipitation assay. Cell lysate was incubated with anti-HA antibody or IgG overnight followed by a two hour incubation with Protein A/G beads to pull down HA-SND1 protein. The beads were washed with lysis buffer and split into five fractions. Each fraction was eluted with buffer or indicated peptides (i.e., Peptide—wt (PNSDWNAPAEEWGNW, SEQ ID NO: 16); Peptide-394A (PNSDANAPAEEWGNW, SEQ ID NO: 17); Peptide-401A (PNSDWNAPAEEAGNW, SEQ ID NO: 18) and Peptide-MT (PNSDANAPAEEAGNW, SEQ ID NO: 19) for 30 minutes.
The elution fractions and beads were collected for western blot. (FIGS. 26C and 26D) Cell lyaste was split into 6 fractions. One of the fractions was incubated with IgG and the rest were incubated with anti-HA antibody plus either buffer or indicated peptides. After 24 hours, the lysate was incubated with Protein A/G beads then the beads was washed followed by wash buffer. 50 uM of peptides was used in all the assays.
The interaction interruption effects was confirmed by endogenous immunoprecipitation (IP) of a breast cancer cell line. Briefly, cell lysates from the breast cancer cell line MDA-MB-231 were collected and subjected to IP assay. […]

[2] = molecular target: T2, SND1; assay: Anti-MTDH immunoprecipitation from PyMT;Mtdh−/− tumor cells reconstituted with murine MTDH; assay type: cell-based; conditions: stably expressed in PyMT;Mtdh−/− tumor cells
Method: (FIG. 8A, FIG. 8E) Lysates from PyMT;Mtdh−/− MECs reconstituted with vector control, WT or mutant murine MTDH were immunoprecipitated with anti-MTDH antibody and immunoblotted for indicated proteins. (FIG. 8B, FIG. 8F) Mammosphere assays were performed with PyMT;Mtdh−/− pMECs reconstituted with indicated Mtdh constructs. (FIG. 8C, FIG. 8D, FIG. 8G, FIG. 8H) In vivo tumor formation (FIG. 8C, FIG. 8G for tumor incidence; FIG. 8D, FIG. 8H for tumor volumes) were performed at limiting numbers using PyMT;Mtdh−/− pMECs reconstituted with indicated WT or mutant MTDH. *Note: mouse W391D MTDH corresponds to human W394D MTDH; and mouse W398D MTDH corresponds to human W401D MTDH. Statistics: (FIG. 8B, […]) Student's t-test. (FIG. 8C, FIG. 8G) Limiting dilution analysis. (FIG. 8D, FIG. 8H) Mann-Whitney test. Data represent mean±SEM. ***p<0.001, **p<0.01, *p<0.05.
(FIG. 23A) Lysates from PyMT;Mtdh−/− tumor cells reconstituted with vector control, WT or mutant murine MTDH were immunoprecipitated with anti-MTDH antibody and immunoblotted for indicated proteins. Note all amino acid annotations are based on human MTDH. W394 and W401 of human MTDH correspond to W391 and W398 in murine MTDH, respectively. (FIG. 23B) Mammosphere assays were performed with PyMT;Mtdh−/− tumor cells reconstituted with indicated MTDH constructs. (FIG. 23C-E) In vivo tumor formation (FIG. 23C for tumor incidence; FIG. 23D, FIG. 23E for tumor volumes) were performed at limiting numbers using PyMT;Mtdh−/− tumor cells reconstituted with indicated WT or mutant MTDH. Statistics: (FIG. 23B) Student's t-test. Data represent mean±SEM. (FIG. 23C) Limiting dilution analysis. (FIG. 23D, FIG. 23E) Mann-Whitney test. **p<0.01, *p<0.05.
Immunoprecipitation and western blot For immunoprecipitation (IP) experiments, cultured cells were washed in cold PBS and lysed in lysis buffer (20 mM Tris pH 7.4, 0.15 M NaCl, 1 mM EDTA, 1 mM EGTA, 1% Tx-100, 0.0025 M Na2P2O7, 1 mM α-glycerolphosphate, 1 mM Na3VO4, and 1 mM NaF) with an EDTA-free protease inhibitor mixture (Roche Applied Science) and PMSF. Cell lysates were then incubated on ice for 10 min, centrifuged, and precleared by incubating with protein A/G beads (Santa Cruz Biotechnology) for 1 h at 4° C. For IP bead preparation, 30 μl of protein A/G beads were incubated with 5 μg of antibodies for 2 h at 4° C. IPs were carried out for overnight at 4° C., and beads were centrifuged, washed and subsequently boiled for 5 min in SDS protein loading buffer to elute bound protein. IP lysates were subjected to western blotting with indicated antibodies. […]

| Molecule | block of MTDH-SND1 interaction by peptide [1] | interaction of murine MTDH mutants with SND1 [2] |
| --- | --- | --- |
| PNSDANAPAEEAGNW (listed as Homo sapiens) [double point mutation] | have no effect in interrupting the interaction of MTDH with SND1 | – |
| B1 | – | lost the ability to interact with SND1 |
| B2 | – | completely lost the ability to interact with SND1 |
| B3 | – | lost the ability to interact with SND1 |
| B4 | – | completely lost the ability to interact with SND1 |
